The record followed here is publication PMC4807222 (Structure (London, England : 1993), 2015).

A value given as a limit tells only on which side of the number the result lay.

B1: Pin1WW (6–39) (domain or fragment, human, UniProt Q13526 6-39, looked up)
chain: KLPPGWEKRMSRSSGRVYYFNHITNASQWERPSG
B2: c-Myc_(1–88) (domain or fragment, human, UniProt P01106-1 1-88, looked up)
chain: MPLNVSFTNRNYDLDYDSVQPYFYCDEEENFYQQQQQSELQPPAPSEDIWKKFELLPTPPLSPSRRSGLCSPSYVAVTPFSLRGDNDG
B3: pSer62-c-Myc_(1–88) (domain or fragment, human, UniProt P01106-1 1-88, looked up)
chain: B2 chain
modifications: phosphoserine at 62
B4: Pin1_(PPIase) (50–163) (domain or fragment, human, UniProt Q13526 50-163, looked up)
chain: GEPARVRCSHLLVKHSQSRRPSSWRQEKITRTKEEALELINGYIQKIKSGEEDFESLASQFSDCSSAKARGDLGAFSRGQMQKPFEDASFALRTGEMSGPVFTDSGIHIILRTE

For the assay “c-Myc_(1–88)”, the target named is B2. As to the kind of experiment: SPR.
Assay [1] deals with T1, full-length Pin1 (1–163) (human, UniProt Q13526 1-163). The experiment in a line: SPR.
T1 sequence (Q13526 whole entry): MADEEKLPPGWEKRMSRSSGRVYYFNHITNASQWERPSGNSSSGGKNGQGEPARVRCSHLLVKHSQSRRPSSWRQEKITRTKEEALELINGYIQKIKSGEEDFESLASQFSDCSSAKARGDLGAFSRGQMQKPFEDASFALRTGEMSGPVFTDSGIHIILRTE
In assay [2] the target is T1, full-length Pin1 (1–163). The experiment in a line: ITC.

Turning to B1, the “fold weaker affinity than intact Pin1” value with c-Myc_(1–88) is more than 10 fold.

In the assay with full-length Pin1 (1–163) [1], B2 registered a Kd of 4 µM.

The molecule B3 displayed a Kd in the assay with full-length Pin1 (1–163) [2] of 10 to 100 µM.

Turning to B4, the “fold weaker affinity than intact Pin1” value with c-Myc_(1–88) was more than 10 fold.
